Reference: patent US20260078416A1, “ORTHOGONAL METABOLIC FRAMEWORK FOR ONE-CARBON UTILIZATION” (Mojia Biotech Pte. Ltd., priority 2021, published 2026)

Legend:
[1] = In vitro kinetic assay of purified HACS variants; substrate acetaldehyde; format: biochemical; conditions: for Km: read-out: Km, app
Procedure: (§1) The kinetic assay was performed with a coupled reaction providing formyl-CoA from formate catalyzed by CoA transferase CaAbfT using acetyl-CoA as a CoA donor.
(§2) In vitro kinetic assay was comprised of 100 mM KPi pH 6.9, 10 mM MgCl2, 0.15 mM TPP, 2 mM acetyl-CoA, 1 μM CaAbfT, 0.25 μM HACS variants, and 20 mM sodium formate. Reactions were incubated at room temperature for 3 min to convert formate to formyl-CoA, and then specific concentration of aldehyde (specifically acetaldehyde or propionaldehyde here) was added to the reaction. After incubating another 3 min, 1/20 of the reaction volume of 10 M NaOH solution was added to terminate the reactions. After 30 min hydrolysis, 1/20 of the reaction volume of 10 N H2SO4 was added to neutralize the pH. Samples were centrifuged at 20817×g for 15 minutes and the supernatant analyzed by GC-MS as described below.
(§3) For this analysis, 0.15 of the reaction volume of internal standard methyl succinate was added to the samples. The resulting sample was extracted into 4 mL ethyl acetate by vigorous vortexing for 20 min. The organic phase was separated and evaporated to dryness under a stream of nitrogen. The residue was dissolved in 30 μL pyridine and 30 μL N,O-Bis(trimethylsilyl)trifluoroacetamide (BSTFA) and incubated at 60° C. for 15 minutes. Compound identification and analysis was performed by GC-MS using an Agilent 7890B Series Custom Gas Chromatography system equipped with a 5977B Inert Plus Mass Selective Detector Turbo EI Bundle (for identification) and an Agilent HP-5-ms capillary column (0.25 mm internal diameter, 0.25 μm film thickness, 30 m length). Samples were analyzed by GC (1 μL injection with a 20:1 split ratio) using helium as the carrier gas at a flowrate of 1.5 mL/min and the following temperature profile: initial 90° C. for 3 min; ramp at 15° C./min to 170° C.; ramp at 20° C./min to 300° C. and hold for 8 min. The injector and detector temperature were 250° C. and 350° C., respectively.
(§4) As hypothesized from Example 3 (FIG. 22B), JGI15 had lower Km with lower kcat with respect to formaldehyde in comparison with JGI20 (Table 8). With longer chain aldehydes JGI15 and JGI20 has lower Km (sub millimolar) to acetaldehyde and propionaldehyde compared to JGI23 and JGI24, while also lower Kcat as well. Which indicates they have stronger affinity to the aldehyde and lower enzymatic activity. JGI23 and JGI24 are promising as they have better activity (higher Kcat) which have a good potential to work better in vivo by improve their affinity to substrates (lower Km). Similarly, AcHACL as lower Km with acetone while JGI15 as better Kcat (Table 8).

[2] = system: tartronate production from glyoxylate and formate; test: HACS screening with glyoxylate and formate (tartronate productivity); format: cell-based, E. coli; conditions: 5 mM glyoxylate and 20 mM formate, first round
Text: We used 2-hydroxyacid productivity per cell density (μM/OD600) as indicator of HACS activity. 2-Hydroxyacids can be produced co-feeding various aldehydes and formic acid (formate) as carbon source in the presence of active HACS variant and acyl-CoA transferase from Clostridium aminobutyricum (CaAbfT). CaAbfT is shown to be capable of catalyzing reaction from formate to formyl-CoA (Nattermann, M., et al. ACS Catal 11 (9): 5396-5404 (2021)). HACS condenses aldehyde and formyl-CoA to form 2-hydroxyacyl-CoA, which can then be hydrolyzed to 2-hydroxyacid via native thioesterase activities (FIG. 31A).
For the in vivo prototyping, we engineered vectors to independently control expression of HACS variants and CaAbfT, with HACS under control of the IPTG-inducible T7 promoter in pCDFDuet-1 and CaAbfT under control of a cumate-inducible T5 promoter in pETDuet-1 (FIG. 31B) and transformed them into the engineered strain of E. coli described in EXAMPLE 3.
The HACS variants were screened for 2-hydroxyacid production using the high throughput screening platform as described in EXAMPLE 3 by co-feeding 5 mM aldehyde and 20 mM formate. The cells were harvested after 1 hour by centrifugation and the supernatant analyzed by HPLC (as described in EXAMPLE 2) or SoGO method.
We used tartronic acid (tartronate) productivity per cell density (uM tartronate/OD600) as indicator of HACS activity. […]

[3] = In vitro kinetic assay of purified HACS variants, coupled with CaAbfT formyl-CoA generation; substrate formaldehyde; format: biochemical; conditions: for Km: read-out: Km, app
Procedure: as §1, §2, §3, §4

[4] = system: 2HIB production from acetone and formate; test: HACS screening with acetone and formate (2HIB production); format: cell-based, E. coli; conditions: 100 mM acetone and 20 mM formate, CaAbfT
Procedure: The HACS variants are tested using the high throughput screening platform as described in EXAMPLE 3 pathway 2 by co-feeding 100 mM acetone and 20 mM formate with formate activation enzyme CaAbfT (FIG. 37A).

Molecule	Kcat, app [1] [s⁻¹]	Km [1] [µM]	better tartronate productivity compared to other HACS variants [2] [%]	Kcat, app [3] [s⁻¹]	Km [3] [mM]	performance in 2HIB production [4]	performance in 2HIB production ([4]; listed as JG115)
JGI20: HACS variant; GenBank PWB41796.1 (protein) MGQITGAQIVARALKQQGVEYMFGIVGIPVIPIAMFAQREGIKFYGFRNEQSASYAAAAVGYLTGRPGVCLGVSGPGMIHGVAGMANAWSNCWPMILIGGANDSYQNGQGAFQEAPQIEAARPFAKYCARPDSLARLPFYVEQAVRTSIYGRPGAVYLDLPGDIITGAMEEEDVHFPPRCPDAPRMMAPQESIDAAMAALKSAERPLVIVGKGAAYSRAENEVREFLETTQLPYLASPMGKGVMPDDHPLSIAPARSAALLGADVILLMGARLNWMMHFGHPPRFDPKVRVIQMDISAEEIGTNVPTEVALVGDAKAITTQLNASLKQQPWQYPSETTWWTGLRKKIDENGATVAEMMADESVPMSYYRVYREIRDLIPNDAIIQNEGASTMDIGRTLMPNFLPRHRLDAGSFGTMGVGLGQAIAAAAVHPDKHVFCIEGDSAFGFSGMEVETAARYGMKNITFIIINNNGIGGGPDTLDPTRVPPSAYTPNAHYEKMAEIYGGKGYFVTEPSQLRPALEEAIKADKPAIVNIMISATSQRKPQQFAWLTR	39.44 ± 3.95	930 ± 150	30	9.53	21.4	better performance than other HACLs	–
JGI15: HACS variant; GenBank HAK63664.1 (protein) MAKSEGKVNGATLMARALQQQGVQYMFGIVGFPVIPIAIAAQREGITYIGMRNEQSASYAAQAASYLTGRPQACLVVSGPGVVHALAGLANAQVNCWPMLLIGGASAIEQNGMGAFQEERQVLLASPLCKYAHQVERPERIPYYVEQAVRSALFGRPGAAYLDMPDDVILGEVEEAAVRPAATVGEPPRSLAPQENIEAALDALQSAKRPLVIVGKGMAWSRAENEVRQFIERTRLPFLATPMGKGVMPDDHPLSVGGARSHALQEADLVFLLGARFNWILHFGLPPRYSKDVRVIQLDLSAEEIGNNRQAEVALVGDGKAIVGQLNQALSSRQWFYPAETPWREAIAAKIAGNQAAVAPMIADNTSPMNYYRVYRDIAARLPRNAIIVGEGANTMDIGRTQMPNFEPRSRLDAGSYGTMGIGLGFAVAAAAVHPGRPVIAVQGDSAFGFSGMEFETAARYGMPIKVIILNNGGIGMGSPAPRDGQPGMPHALSHDARYERIAEAFGGAGFYVTDSAELGPALDAAMAFKGPAIVNIKIAATADRKPQQFNWHG	22.50 ± 1.93	290 ± 20	–	5.98	3.87	best performance	better performance than other HACLs
